In patent US20200024330A1:

Experiments:
Assay in all cases: cell-based or functional assay
[1] = target: HIV-1 Env of isolate MGRM-F1-015 (HIV-1)
[2] = target: HIV-1 Env of isolate MGRM-F1-012 (HIV-1)
[3] = target: HIV-1 Env of isolate MGRM-F1-004 (HIV-1)
[4] = target: HIV-1 Env of isolate MGRM-Chronic-B-018 (HIV-1)
[5] = target: HIV-1 Env of isolate MGRM-D-024 (HIV-1)
[6] = target: HIV-1 Env of isolate MGRM-F1-018 (HIV-1)
[7] = target: HIV-1 Env of isolate MGRM-D-011 (HIV-1)
[8] = target: HIV-1 Env of isolate MGRM-F1-010 (HIV-1)
[9] = target: HIV-1 Env of isolate MGRM-D-028 (HIV-1)
[10] = target: HIV-1 Env of isolate MGRM-Chronic-B-011 (HIV-1)
[11] = target: HIV-1 Env of isolate VLGCB3 (HIV-1)
[12] = target: HIV-1 Env of isolate 93IN905 (HIV-1)
[13] = target: HIV-1 Env of isolate MGRM-D-029 (HIV-1)
[14] = target: HIV-1 Env of isolate MGRM-D-019 (HIV-1)
[15] = target: HIV-1 Env of isolate NL43 (HIV-1)
[16] = target: HIV-1 Env of isolate MGRM-D-018 (HIV-1)
[17] = target: HIV-1 Env of isolate THR0.18 (HIV-1)
[18] = target: HIV-1 Env of isolate MGRM-Chronic-B-010 (HIV-1)
[19] = target: HIV-1 Env of isolate MGRM-D-026 (HIV-1)
[20] = target: HIV-1 Env of isolate MGRM-Chronic-B-024 (HIV-1)
[21] = target: HIV-1 Env of isolate QH0692.42 (HIV-1)
[22] = target: HIV-1 Env of isolate MGRM-Chronic-B-023 (HIV-1)
[23] = target: HIV-1 Env of isolate MGRM-F1-013 (HIV-1)
[24] = target: HIV-1 Env of isolate MGRM-Chronic-B-020 (HIV-1)
[25] = target: HIV-1 Env of isolate MGRM-F1-022 (HIV-1)
[26] = target: HIV-1 Env of isolate MGRM-D-013 (HIV-1)
[27] = target: HIV-1 Env of isolate SC422661.8 (HIV-1)
[28] = target: HIV-1 Env of isolate 97ZA012 (HIV-1)
[29] = target: HIV-1 Env of isolate MGRM-F1-008 (HIV-1)
[30] = target: HIV-1 Env of isolate 93MW959 (HIV-1)
[31] = target: HIV-1 Env of isolate JRCSF (HIV-1) (UniProt P20871)
[32] = target: HIV-1 Env of isolate MGRM-F1-016 (HIV-1)
[33] = target: HIV-1 Env of isolate MGRM-D-020 (HIV-1)
[34] = target: HIV-1 Env of isolate MGRM-F1-017 (HIV-1)
[35] = target: HIV-1 Env of isolate MGRM-D-016 (HIV-1)
[36] = target: HIV-1 Env of isolate MGRM-F1-023 (HIV-1)
[37] = target: HIV-1 Env of isolate TRJ04551.58 (HIV-1)
[38] = target: HIV-1 Env of isolate MGRM-D-021 (HIV-1)
[39] = target: HIV-1 Env of isolate MGRM-D-014 (HIV-1)
[40] = target: HIV-1 Env of isolate MGRM-F1-014 (HIV-1)
[41] = target: HIV-1 Env of isolate MGRM-F1-021 (HIV-1)
[42] = target: HIV-1 Env of isolate 98IN022 (HIV-1)
[43] = target: HIV-1 Env of isolate TRO.11 (HIV-1)
[44] = target: HIV-1 Env of isolate MGRM-D-022 (HIV-1)
[45] = target: HIV-1 Env of isolate MGRM-Chronic-B-012 (HIV-1)
[46] = target: HIV-1 Env of isolate MGRM-F1-020 (HIV-1)
[47] = target: HIV-1 Env of isolate SF162 (HIV-1) (UniProt P19550)
[48] = target: HIV-1 Env of isolate MGRM-Chronic-B-017 (HIV-1)
[49] = target: HIV-1 Env of isolate MGRM-F1-006 (HIV-1)
[50] = target: HIV-1 Env of isolate PVO.4 (HIV-1)
[51] = target: HIV-1 Env of isolate MGRM-D-012 (HIV-1)

PGT-145 (antibody), sequence (VH): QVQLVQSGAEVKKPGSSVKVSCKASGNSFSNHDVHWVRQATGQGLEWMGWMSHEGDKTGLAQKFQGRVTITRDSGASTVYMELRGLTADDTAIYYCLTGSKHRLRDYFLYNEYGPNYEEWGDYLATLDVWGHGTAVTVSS
PGT-145 (antibody), sequence (VL): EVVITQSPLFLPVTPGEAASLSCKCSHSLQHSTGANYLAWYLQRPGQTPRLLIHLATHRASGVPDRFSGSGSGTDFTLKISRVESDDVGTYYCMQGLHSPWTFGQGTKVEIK

PGT-145 (antibody) gave an IC50, pseudovirus neutralization [1] of 1.76 µg/mL, an IC50, pseudovirus neutralization [2] of 0.113 µg/mL and an IC50, pseudovirus neutralization [3] of 0.361 µg/mL. The neutralization IC50 [4] was 0.013 µg/mL, the IC50, pseudovirus neutralization [5] was 0.224 µg/mL and the IC50, pseudovirus neutralization [6] was 1.02 µg/mL. For the same substance, the IC50, pseudovirus neutralization [7] was 14.7 µg/mL, the IC50, pseudovirus neutralization [8] was 3.32 µg/mL and the IC50, pseudovirus neutralization [9] was 0.721 µg/mL. The neutralization IC50 [10] was 0.206 µg/mL, the neutralization IC50 [11] was > 50 µg/mL and the neutralization IC50 [12] was 0.002 µg/mL. The IC50, pseudovirus neutralization [13] was 0.03 µg/mL, the IC50, pseudovirus neutralization [14] was 0.111 µg/mL and the neutralization IC50 [15] was 0.006 µg/mL. The IC50, pseudovirus neutralization [16] was 0.065 µg/mL, the neutralization IC50 [17] was 0.013 µg/mL and the neutralization IC50 [18] was > 50 µg/mL. For the same substance, the IC50, pseudovirus neutralization [19] was 0.41 µg/mL, the neutralization IC50 [20] was 0.018 µg/mL and the neutralization IC50 [21] was > 50 µg/mL. The neutralization IC50 [22] was 0.009 µg/mL, the IC50, pseudovirus neutralization [23] was 0.402 µg/mL and the neutralization IC50 [24] was > 50 µg/mL. It also gave an IC50, pseudovirus neutralization [25] of 0.009 µg/mL, an IC50, pseudovirus neutralization [26] of 3.48 µg/mL and a neutralization IC50 [27] of 0.079 µg/mL. For the same substance, the neutralization IC50 [28] was 0.915 µg/mL, the IC50, pseudovirus neutralization [29] was 0.228 µg/mL and the neutralization IC50 [30] was 1.2 µg/mL. The neutralization IC50 [31] was 0.002 µg/mL, the IC50, pseudovirus neutralization [32] was 17.5 µg/mL and the IC50, pseudovirus neutralization [33] was 10 µg/mL. The IC50, pseudovirus neutralization [34] was 0.286 µg/mL, the IC50, pseudovirus neutralization [35] was > 50 µg/mL and the IC50, pseudovirus neutralization [36] was 5.88 µg/mL. For the same substance, the neutralization IC50 [37] was > 50 µg/mL, the IC50, pseudovirus neutralization [38] was > 50 µg/mL and the IC50, pseudovirus neutralization [39] was 2.51 µg/mL. For the same substance, the IC50, pseudovirus neutralization [40] was 0.009 µg/mL, the IC50, pseudovirus neutralization [41] was 8.04 µg/mL and the neutralization IC50 [42] was 0.005 µg/mL. It also gave a neutralization IC50 [43] of 0.044 µg/mL, an IC50, pseudovirus neutralization [44] of 34.3 µg/mL and a neutralization IC50 [45] of 9.66 µg/mL. The IC50, pseudovirus neutralization [46] was 0.816 µg/mL, the neutralization IC50 [47] was > 50 µg/mL and the neutralization IC50 [48] was 0.054 µg/mL. For the same substance, the IC50, pseudovirus neutralization [49] was 13.6 µg/mL, the neutralization IC50 [50] was 0.299 µg/mL and the IC50, pseudovirus neutralization [51] was > 50 µg/mL.
